Patent publication US20230338477A1 (published 2023)
Positions count from the first letter of the chain named.

B1: 12845B (antibody, V domains shown)
VH: EVQLVESGGGLVQPGGSLRLSCAASGFTVSNYEMNWVRQAPGKGLEWVSYISSSTSNIYYADSVKGRFTISRDNAENSLYLQMNSLRVEDTAVYYCVRDGIVVVPVGRGYYYYGLDVWGQGTTVTVSS
VL: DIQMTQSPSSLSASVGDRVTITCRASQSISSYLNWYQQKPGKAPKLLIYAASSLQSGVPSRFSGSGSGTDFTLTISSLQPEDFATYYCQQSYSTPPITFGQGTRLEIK
notes: Anti-hTfR antibody of the initial screen; only variable domains are tied to it
B2: 12833B (antibody, V domains shown)
VH: QVQLVESGGGVVQPGRSLRLSCAASGFTFSSFGMHWVRQAPGKGLEWVIFISYDGSDKYYADSVKGRFAISRDSSKNTLYLQMNSLRAEDTAVYYCAKENGILTDSYGMDVWGQGTTVTVSS
VL: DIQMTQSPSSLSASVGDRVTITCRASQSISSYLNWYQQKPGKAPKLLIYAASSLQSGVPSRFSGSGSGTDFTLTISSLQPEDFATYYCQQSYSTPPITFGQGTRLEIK
notes: as for B1
B3: 12839B (antibody, V domains shown)
VH: QVQLVESGGGVVQPGRSLRLSCAASGFPFSNYVMYWVRQAPGKGLEWVALIFFDGKKNYHADSVKGRFTITRDNSKNMLYLQMNSLRPEDAAVYYCAKIHCPNGVCYKGYYGMDVWGQGTTVTVSS
VL: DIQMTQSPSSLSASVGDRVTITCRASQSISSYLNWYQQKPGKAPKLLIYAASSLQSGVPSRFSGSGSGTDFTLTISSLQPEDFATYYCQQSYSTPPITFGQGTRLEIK
notes: as for B1
B4: 12798B (antibody, V domains shown)
VH: EVQLVESGGDLVQPGRSLRLSCAASGFTFDDYAMHWVRQAPGKGLEWVSGISWNSATRVYADSVKGRFTISRDNAKNFLYLQMNSLRSEDTALYHCAKDMDISLGYYGLDVWGQGTTVTVSS
VL: not shown
notes: as for B1
B5: 69305 (antibody, V domains shown)
VH: QVQLVESGGGVVQPGRSLRLSCAASGFTFSSYGMHWVRQAPGKGLEWVAVIWYDGSNKYYADSVKGRFTISRDISKNTLYLQMNSLRAEDTAVYYCAGQLDLFFDYWGQGTLVTVSS
VL: DIQMTQSPSSLSASVGDRVTITCRASQSIDRYLNWYRQKPGKAPKLLIYTTSSLQSGVPSRFSGSGSGTDFTLTLSSLQPEDFATYYCQQSYSPPLTFGGGTKVEIK
notes: as for B1
B6: 12843B (antibody, V domains shown)
VH: EVQLVESGGGLVQPGGSLRLSCAASGFTFNIFEMNWVRQAPGKGLEWISYISSRGTTTYYADSVRGRFTISRDNAKNSLYLQMNSLRAEDTAVYYCARDYEATIPFDFWGQGTLVTVSS
VL: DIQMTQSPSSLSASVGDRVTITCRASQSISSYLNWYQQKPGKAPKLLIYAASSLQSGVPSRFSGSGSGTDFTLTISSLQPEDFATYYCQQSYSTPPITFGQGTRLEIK
notes: as for B1
B7: 31874B (antibody, V domains shown)
VH: EVQLVESGGGLVQPGGSLRLSCAASGFAFSSYAMTWVRQAPGKGLEWVSVISGTGGSTYYADSVKGRFTISRDNSKNTLYLQMNSLRAEDTAVYYCAKGGAARRMEYFQYWGQGTLVTVSS
VL: DIQMTQSPSSLSASVGDRVTITCRASQGISNYLAWYQQKPGKVPNLLIYAASTLQSGVPSRFSGSGSGTDFTLTISSLQPEDVATYYCQKYNSAPLTFGGGTKVEIK
notes: as for B1
B8: 31863B (antibody, V domains shown)
VH: EVQLVESGGGLVQPGGSLRLSCAASGFTFNSYAMTWVRQAPGKGLEWVSFIGGSTGNTYYAGSVKGRFTISSDNSKKTLYLQMNSLRAEDTAVYYCAKGGAARRMEYFQHWGQGTLVTVSS
VL: B7 VL with V15I, N45K, K90N, Y91H, A94V
notes: as for B1
B9: 69263 (antibody, V domains shown)
VH: EVQLVESGGGLVQPGRSLRLSCAVSGFTFDDYAMHWVRQAPGKGLEWVSGISWNSGTRGYADSVKGRFTISRDNAKNSLYLQMNSLRGEDTALYYCVKDITISPNYYGMDVWGQGTTVTVSS
VL: B7 VL with G28D, N31H, L33S, V43L, T72S, I75T, A94V
notes: as for B1
B10: 12795B (antibody, V domains shown)
VH: EVQLVESGGGLVQPGGSLRLSCATSGFTFTSYDMKWVRQAPGLGLEWVSAISGSGGNTYYADSVKGRFTISRDNSRNTLYLQMNSLRAEDTAVYYCTRSHDFGAFDYFDYWGQGTLVTVSS
VL: DIQMTQSPSSLSASVGDRVTITCRASQGIRDHFGWYQQKPGKAPKRLIYAASSLHSGVPSRFSGSGSGTEFTLTISSLQPEDFATYYCLQYDTYPLTFGGGTKVEIK
notes: as for B1
B11: 12801B (antibody, V domains shown)
VH: EVQLLESGGALVQPGGSLRLSCAASGFTFTSYAMHWVRQAPGKGLEWVSSIRGSGGGTYSADSVKGRFTISRDNSRDTLYLQMNSVRAEDTAVYYCARSHDYGAFDFFDYWGQGTLVTVSS
VL: B10 VL with D31T, H32D, F33L, H55Q, Q79R, Y86F, D92N, T93S
notes: as for B1
B12: 12834B (antibody, V domains shown)
VH: QVQLVQSGAEVKKPGASVKVSCKASGYTFTSYGISWVRQAPGQGLEWMGWISVYHGNTNYAQKFQGRVTMTTDTSTSTAYMELRSLRSDDTAVYYCAREGYYDFWSGYYPFDYWGQGTLVTVSS
VL: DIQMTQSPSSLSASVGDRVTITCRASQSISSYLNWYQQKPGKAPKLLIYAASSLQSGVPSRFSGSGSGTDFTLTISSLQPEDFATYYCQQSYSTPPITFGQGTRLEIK
notes: as for B1
B13: 12841B (antibody, V domains shown)
VH: EVQLVESGGGLVQPGGSLRLSCAASGFTFSNYWMNWVRQAPGKGLEWVANIKEDGGKKLYVDSVKGRFTISRDNAKNSLFLQMNSLRAEDTAVYYCAREDTTLVVDYYYYGMDVWGQGTTVTVSS
VL: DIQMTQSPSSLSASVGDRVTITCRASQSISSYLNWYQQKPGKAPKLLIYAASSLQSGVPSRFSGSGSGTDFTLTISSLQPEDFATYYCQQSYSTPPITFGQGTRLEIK
notes: as for B1
B14: 12850B (antibody, V domains shown)
VH: QVQLVQSGAEVKKPGSSVKVSCKASGGTFNTYAITWVRQAPGQGLEWMGGIIPISGIAEYAQKFQGRVTITTDDSSTTAYMELNSLRSEDTAVYYCASWNYALYYFYGMDVWGRGTTVTVSS
VL: not shown
notes: as for B1
B15: 12848B (antibody, V domains shown)
VH: EVQLVESGGGLVQPGRSLTLSCAASGFTFDNFGMHWVRQGPGKGLEWVSGLTWNSGVIGYADSVKGRFTISRDNAKNSLYLQMNSLRPEDTALYYCAKDIRNYGPFDYWGQGTLVTVSS
VL: not shown
notes: as for B1
B16: 12844B (antibody, V domains shown)
VH: EVQLVESGGSVVRPGGSLRLSCEASGFTFDDYGMSWVRQDPGKGLEWVSGINWNGDRTNYADSVKGRFIISRDNAKNSVYLQMNSLRAEDSALYHCARDQGLGVAATLDYWGQGTLVTVSS
VL: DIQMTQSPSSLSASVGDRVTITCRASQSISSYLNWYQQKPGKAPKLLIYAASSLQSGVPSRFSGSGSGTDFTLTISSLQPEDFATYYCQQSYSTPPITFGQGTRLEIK
notes: as for B1
B17: 12847B (antibody, V domains shown)
VH: EVQLVESGGGLVQPGRSLRLSCAASGFTFDDYAMNWVRQAPGKGLEWVSGISWSSGSMDYADSVKGRFTISRDNAKNSLYLQMNSLRTEDTALYYCAKAREVGDYYGMDVWGQGTTVTVSS
VL: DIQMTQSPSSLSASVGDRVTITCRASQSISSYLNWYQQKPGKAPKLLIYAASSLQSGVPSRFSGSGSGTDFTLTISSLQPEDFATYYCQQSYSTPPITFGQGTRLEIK
notes: as for B1
B18: 12802B (antibody, V domains shown)
VH: QVQLVESGGGLVKPGGSLRLSCAASGFTFSDYFMSWIRQAPGKGLEWVSYISSTGSTINYADSVKGRFTISRDNVKNSLYLQMTSLRVEDTAVYYCTRDNWNYEYWGQGTLVTVSS
VL: EIVMTQSPATLSVSPGERATLSCRASQSVSINLAWYQQKPGQAPRLLIFVASTRATGIPARFSGSGSGTEFTLTISSLQSEDFATYYCQQYDIWPYTFGQGTKLEIK
notes: as for B1
B19: 12808B (antibody, V domains shown)
VH: QLQLQESGPGLVKPSETLSLTCTVSGESISSNTYYWGWIRQPPGKGLEWIGSIDYSGTTNYNPSLKSRVTISVDTSRNHFSLRLRSVTAADTAVYYCAREWGNYGYYYGMDVWGQGTTVTVSS
VL: DIQMTQSPSSLSASVGDRVTINCRASQGIRNDLGWYQQKPGKAPKRLIYAASSLQSGVPLRFSGSGSGTEFTLTINNLQPEDFATYYCLSHNSYPWTFGQGTKVEIK
notes: as for B1
B20: 12816B (antibody, V domains shown)
VH: QVQLVESGGGLVKPGGSLRLSCAASGFTFSDYYMNWIRQAPGKGLEWVSYISSSGTTIYYADSVKGRFTISRDNAKKSLYLEMNSLRAEDTAVYYCAREGYGNDYYYYGIDVWGQGTTVTVSS
VL: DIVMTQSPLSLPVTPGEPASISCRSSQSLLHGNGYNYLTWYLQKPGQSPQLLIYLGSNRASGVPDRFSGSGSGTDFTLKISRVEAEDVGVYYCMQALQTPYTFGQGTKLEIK
notes: as for B1
B21: 69261 (antibody, V domains shown)
VH: B20 VH with D31V, T56S, K77N, E82Q, A97G, G102S, N103G, D104T, Y106S, I110M
VL: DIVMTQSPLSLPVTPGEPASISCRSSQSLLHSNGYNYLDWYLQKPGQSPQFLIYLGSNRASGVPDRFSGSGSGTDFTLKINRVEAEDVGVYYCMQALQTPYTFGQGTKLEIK
notes: as for B1
B22: 69323 (antibody, V domains shown)
VH: EVQLVESGGGLVQPGRSLRLSCAASGFTFDDYAMHWVRQAPGKGLEWVSGISWNSGYIGYADSVKGRFTISRDNAENSLHLQMNSLRAEDTALYYCARGGSTLVRGVKGGYYGMDVWGQGTTVTVSS
VL: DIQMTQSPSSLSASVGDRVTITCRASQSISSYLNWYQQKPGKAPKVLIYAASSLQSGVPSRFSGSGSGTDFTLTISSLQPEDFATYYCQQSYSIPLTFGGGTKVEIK
notes: as for B1
B23: 69329 (antibody, V domains shown)
VH: EVQLVESGGGLVQPGGSLRLSCAASGFTFSNYWMTWVRQAPGKGLEWVANIKEDGSEKDYVDSVKGRFTISRDNAKNSLYLQMNSLRGEDTAVYYCARDGEQLVDYYYYYVMDVWGQGTTVTVSS
VL: DIQMTQSPSSVSASVGDRVTITCRASQGISSWLAWYQQKPGKAPKLLIYAASSLQSGVPSRFSGSGSGTDFTLTISSLQPEDFATYYCQKANSFPYTFGQGTKLEIK
notes: as for B1
B24: 12812B (antibody, V domains shown)
VH: QVQLVQSGAEVKKPGSSVRVSCKASRGTFSSYAISWVRQAPGQGLEWMGGIIPIFGTANYAQKFLARVTITADESTSTAYMELSSLRSEDTAVYYCAREKGWNYFDYWGQGTLVTVSS
VL: B23 VL with S9P, K90Q, Y96R, L104V
notes: as for B1
B25: 12799B (antibody, V domains shown)
VH: QITLKESGPTLVKPTQTLTLTCTFSGFSLSTSGVGVVWIRQPPGKALEWLALIYWNDHKRYSPSLGSRLTITKDTSKNQVVLTMTNMDPVDTATYYCAHYSGSYSYYYYGLDVWGQGTTVTVSS
VL: B23 VL with S30A, K45E, S56G, T85I, K90Q, S93Y, Y96W, L104V
notes: as for B1
B26: 69307 (antibody, V domains shown)
VH: B23 VH with A23T, D59E
VL: B23 VL with N92D, F94L, T97A
notes: as for B1
B27: 12835B (antibody, V domains shown)
VH: EVQLVESGGGLIQPGGSLRLSCEASGFTFRNYEMNWVRQAPGKGLEWVSYISSSGNMKDYAESVKGRFTISRDNVKNSLQLQMNSLRVEDTAVYYCARDEFPYGMDVWGQGTTVTVSS
VL: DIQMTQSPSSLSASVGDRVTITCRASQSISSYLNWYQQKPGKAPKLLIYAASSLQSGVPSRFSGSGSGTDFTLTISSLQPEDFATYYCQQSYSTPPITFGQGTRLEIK
notes: as for B1

Molecular target: T1, human transferrin receptor 1 (hTfR) (human, UniProt P02786 89-760, limits assumed)
T1 construct: also called TFRC; transferrin receptor protein 1
T1 sequence (P02786 89-760 limits assumed): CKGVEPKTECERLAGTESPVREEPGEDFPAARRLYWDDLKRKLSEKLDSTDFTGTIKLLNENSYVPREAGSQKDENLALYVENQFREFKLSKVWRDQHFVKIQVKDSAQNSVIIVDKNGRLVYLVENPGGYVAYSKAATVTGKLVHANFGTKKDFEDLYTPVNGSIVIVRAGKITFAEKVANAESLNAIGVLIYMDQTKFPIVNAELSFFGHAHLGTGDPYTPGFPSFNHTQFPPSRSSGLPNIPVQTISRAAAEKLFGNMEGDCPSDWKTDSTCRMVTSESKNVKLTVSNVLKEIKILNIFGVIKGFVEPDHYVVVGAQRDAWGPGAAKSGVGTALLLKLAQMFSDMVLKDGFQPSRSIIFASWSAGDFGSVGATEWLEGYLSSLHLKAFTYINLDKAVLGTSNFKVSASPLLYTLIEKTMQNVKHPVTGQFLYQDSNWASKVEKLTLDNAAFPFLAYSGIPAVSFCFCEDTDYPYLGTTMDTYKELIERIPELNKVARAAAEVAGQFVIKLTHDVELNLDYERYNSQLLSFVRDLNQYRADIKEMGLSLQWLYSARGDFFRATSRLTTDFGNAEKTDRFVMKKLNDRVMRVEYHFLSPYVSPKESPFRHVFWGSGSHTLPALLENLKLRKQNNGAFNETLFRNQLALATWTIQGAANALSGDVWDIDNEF
Experiment: in vitro binding screen, method not described

Row | binding result | Binder
1 | binds | B1
2 | binds | B2
3 | binds | B3
4 | binds | B4
5 | binds | B5
6 | binds | B6
7 | binds | B7
8 | binds | B8
9 | binds | B9
10 | binds | B10
11 | binds | B11
12 | binds | B12
13 | binds | B13
14 | binds | B14
15 | binds | B15
16 | binds | B16
17 | binds | B17
18 | binds | B18
19 | binds | B19
20 | binds | B20
21 | binds | B21
22 | binds | B22
23 | binds | B23
24 | binds | B24
25 | binds | B25
26 | binds | B26
27 | binds | B27
